# Assay results from publication PMC8191759.
# Experiments:
# Assay in all cases: cross-linking
# NSP8 F92A (SARS-CoV-2) = biological target: NSP8 F92A (SARS-CoV-2)
# NSP8 M90A (SARS-CoV-2) = biological target: NSP8 M90A (SARS-CoV-2)
# NSP8 M94A (SARS-CoV-2) = biological target: NSP8 M94A (SARS-CoV-2)
substance,measurement,setting,value
NSP8 F92A (natural protein),stoichiometry N,NSP8 F92A (SARS-CoV-2),2
NSP8 M90A (natural protein),stoichiometry N,NSP8 M90A (SARS-CoV-2),2
NSP8 M94A (natural protein),stoichiometry N,NSP8 M94A (SARS-CoV-2),2
